Among the data in patent publication US20230174628A1 are OD450 reading values, retold here.

For this assay, the target named is RBD of the recombinantly expressed S protein (SARS-CoV-2) (UniProt P0DTC2). The assay is described as follows: ELISA, plate coated with RBD at 0.01 µg/ml, HRP goat anti-human IgG Fc.

On to Irrelevant antibody, for which the OD450 reading turned out to be 0.006 OD450.
